± gives the standard error. Variants at the floor of the assay were thinned out.
B1: glmS ribozyme (parent)
chain: AUAAAAGCGCCAGAACUACAGAAAUGUAGUUGACGAGGAGGAGGUUUAUCGAAUUUUCGGCGGAUGCCUCCAAA

Legend:
Details in all cases: with glucosamine-6-phosphate
glucosamine-6-phosphate [1] = variants of: B1; test: self-cleavage kobs at 160 uM GlcN6P; higher = faster cleavage; RNA array
In short: (§1)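 Over ~14 h at 37 °C, tiles were imaged as glucosamine-6-phosphate (40 μM to 10 mM) in HEPES/KCl/Mg(OAc)2 buffer flowed across sequenced MiSeq chips. The chips carried barcoded ribozyme variants transcribed in situ by E. coli RNA polymerase and tracked with a hybridised Cy3 probe. After normalisation to baseline and to non-cleaving reference variants, one- or two-exponential decay fits of per-tile medians gave kobs. kcat and KM followed from weighted Michaelis–Menten fits across concentrations.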

glucosamine-6-phosphate [2] = variants of: B1; test: self-cleavage kobs at 2500 uM GlcN6P; higher = faster cleavage; RNA array
In short: as §1

glucosamine-6-phosphate [3] = variants of: B1; test: self-cleavage kobs at 10000 uM GlcN6P; higher = faster cleavage; RNA array
In short: as §1

glucosamine-6-phosphate [4] = variants of: B1; test: self-cleavage kobs at 640 uM GlcN6P; higher = faster cleavage; RNA array
In short: as §1

Variant | self-cleavage kobs at 160 uM GlcN6P (glucosamine-6-phosphate [1]) | self-cleavage kobs at 2500 uM GlcN6P (glucosamine-6-phosphate [2]) | self-cleavage kobs at 10000 uM GlcN6P (glucosamine-6-phosphate [3]) | self-cleavage kobs at 640 uM GlcN6P (glucosamine-6-phosphate [4])
G35U G41A A48G C58G | < 1e-05 s⁻¹ |  |  | 
C34U G35C | < 1e-05 s⁻¹ | < 1e-05 s⁻¹ | < 1e-05 s⁻¹ | 
U30G G40A | 0.000128 ± 3.7e-05 s⁻¹ | 0.000813 ± 0.00013 s⁻¹ |  | 0.000261 ± 6.3e-05 s⁻¹
G38C G43A | < 1e-05 s⁻¹ | < 1e-05 s⁻¹ | < 1e-05 s⁻¹ | < 1e-05 s⁻¹
G32A A53C C71U | 3.67e-05 ± 1.6e-05 s⁻¹ | 0.000197 ± 4.7e-05 s⁻¹ |  | 7.17e-05 ± 2.3e-05 s⁻¹
G32U G51U | < 1e-05 s⁻¹ |  |  | < 1e-05 s⁻¹
G38C A42C | < 1e-05 s⁻¹ | < 1e-05 s⁻¹ | < 1e-05 s⁻¹ | < 1e-05 s⁻¹
G32C G38U G43A C67A | < 1e-05 s⁻¹ | < 1e-05 s⁻¹ |  | 
C34U U56C | < 1e-05 s⁻¹ | < 1e-05 s⁻¹ | < 1e-05 s⁻¹ | < 1e-05 s⁻¹
C34U U56G | < 1e-05 s⁻¹ | < 1e-05 s⁻¹ |  | 
G29U A36G A52G | < 1e-05 s⁻¹ | < 1e-05 s⁻¹ |  | 
G38A A53C | < 1e-05 s⁻¹ |  |  | 
U31C G41A G59U | < 1e-05 s⁻¹ | < 1e-05 s⁻¹ |  | < 1e-05 s⁻¹
G37C G41A C50G G60A C67G C68A | 9.12e-05 ± 1.6e-05 s⁻¹ | 9.58e-05 ± 1.3e-05 s⁻¹ |  | 8.46e-05 ± 1.9e-05 s⁻¹
G37A G38A | < 1e-05 s⁻¹ | < 1e-05 s⁻¹ | < 1e-05 s⁻¹ | < 1e-05 s⁻¹
C34U G35U A39C G63A C67U | < 1e-05 s⁻¹ |  |  | 
U31C G62U G66C | < 1e-05 s⁻¹ |  |  | 
A33C G59C C61G A64G | < 1e-05 s⁻¹ |  |  | < 1e-05 s⁻¹
G29U G60U | < 1e-05 s⁻¹ | < 1e-05 s⁻¹ | < 1e-05 s⁻¹ | < 1e-05 s⁻¹
G35A U49A C67G C68G | 0.000246 ± 7.8e-05 s⁻¹ | 0.000118 ± 3.7e-05 s⁻¹ |  | 9.7e-05 ± 2.3e-05 s⁻¹
G35C U46C C50A | < 1e-05 s⁻¹ |  | < 1e-05 s⁻¹ | 
G35U C71U | < 1e-05 s⁻¹ | < 1e-05 s⁻¹ | < 1e-05 s⁻¹ | < 1e-05 s⁻¹
A36C G37A U46A G66U | < 1e-05 s⁻¹ | < 1e-05 s⁻¹ |  | < 1e-05 s⁻¹
U30G U57C G62C | < 1e-05 s⁻¹ |  |  | < 1e-05 s⁻¹
G35U A42C | < 1e-05 s⁻¹ | < 1e-05 s⁻¹ |  | < 1e-05 s⁻¹
A36C A39G C68U | < 1e-05 s⁻¹ |  |  | < 1e-05 s⁻¹

Variant | self-cleavage kobs at 160 uM GlcN6P (glucosamine-6-phosphate [1]) | self-cleavage kobs at 2500 uM GlcN6P (glucosamine-6-phosphate [2]) | self-cleavage kobs at 10000 uM GlcN6P (glucosamine-6-phosphate [3]) | self-cleavage kobs at 640 uM GlcN6P (glucosamine-6-phosphate [4])
G35C G62U | < 1e-05 s⁻¹ | < 1e-05 s⁻¹ | < 1e-05 s⁻¹ | < 1e-05 s⁻¹
U30G G32A A48G G62C | < 1e-05 s⁻¹ | < 1e-05 s⁻¹ |  | < 1e-05 s⁻¹
G29U G43C U47A G63A | < 1e-05 s⁻¹ | < 1e-05 s⁻¹ |  | < 1e-05 s⁻¹
G35A U55C C70A | < 1e-05 s⁻¹ |  |  | < 1e-05 s⁻¹
A36G A48G | < 1e-05 s⁻¹ | < 1e-05 s⁻¹ | < 1e-05 s⁻¹ | < 1e-05 s⁻¹
U30C U54G C68A | 0.000132 ± 4.9e-05 s⁻¹ |  |  | 
A36U U57G | < 1e-05 s⁻¹ | < 1e-05 s⁻¹ | < 1e-05 s⁻¹ | 
G29U G32A G37U G66A | < 1e-05 s⁻¹ | < 1e-05 s⁻¹ |  | < 1e-05 s⁻¹
G29U C34G G38U G44U | < 1e-05 s⁻¹ |  |  | < 1e-05 s⁻¹
U30G C71G | 6.06e-05 ± 2.9e-05 s⁻¹ | 0.000179 ± 4.3e-05 s⁻¹ | 0.000543 ± 0.00012 s⁻¹ | 9.91e-05 ± 2.4e-05 s⁻¹
C34A A36G A39U A48C | < 1e-05 s⁻¹ | < 1e-05 s⁻¹ |  | 
C34G U56A G62A C67U | < 1e-05 s⁻¹ |  |  | 
G32A A42G U56A C70A | < 1e-05 s⁻¹ |  |  | 
G32A G51C | < 1e-05 s⁻¹ | < 1e-05 s⁻¹ |  | < 1e-05 s⁻¹
U30G G41C G60A | < 1e-05 s⁻¹ | < 1e-05 s⁻¹ |  | 
G38A A64G C67U | < 1e-05 s⁻¹ |  |  | 
G32U A48G G63C | < 1e-05 s⁻¹ | < 1e-05 s⁻¹ |  | 
U30G U54G U56G | 0.00021 ± 5.7e-05 s⁻¹ | 0.00255 ± 0.00053 s⁻¹ |  | 0.000994 ± 0.00019 s⁻¹
G37A U49C | < 1e-05 s⁻¹ | < 1e-05 s⁻¹ | < 1e-05 s⁻¹ | < 1e-05 s⁻¹
G35A C58G | < 1e-05 s⁻¹ | < 1e-05 s⁻¹ |  | 
U31G A33U G38U | < 1e-05 s⁻¹ |  |  | 
A36C G38C U56C | < 1e-05 s⁻¹ | < 1e-05 s⁻¹ |  | 
G29U U30G A39U | 8.86e-05 ± 2.1e-05 s⁻¹ | 0.0013 ± 0.00029 s⁻¹ |  | 
G32C C34A C61U C67U | < 1e-05 s⁻¹ |  |  | 
U30C G35U G40U A42G U47C | < 1e-05 s⁻¹ |  |  | < 1e-05 s⁻¹
A33U G38A A48G G66U U69G | 4.81e-05 ± 1.6e-05 s⁻¹ |  |  | 0.000108 ± 2.9e-05 s⁻¹

Variant | self-cleavage kobs at 160 uM GlcN6P (glucosamine-6-phosphate [1]) | self-cleavage kobs at 2500 uM GlcN6P (glucosamine-6-phosphate [2]) | self-cleavage kobs at 10000 uM GlcN6P (glucosamine-6-phosphate [3]) | self-cleavage kobs at 640 uM GlcN6P (glucosamine-6-phosphate [4])
C34U U45C U65A | < 1e-05 s⁻¹ |  |  | < 1e-05 s⁻¹
G35C G60U G62C | < 1e-05 s⁻¹ |  |  | < 1e-05 s⁻¹
G37C A39G G44A | < 1e-05 s⁻¹ |  |  | < 1e-05 s⁻¹
A33U G35U A42U G44U | < 1e-05 s⁻¹ | < 1e-05 s⁻¹ |  | < 1e-05 s⁻¹
G35U U45G U46G A64G | < 1e-05 s⁻¹ | < 1e-05 s⁻¹ |  | < 1e-05 s⁻¹
G35U A42C U55C | < 1e-05 s⁻¹ |  |  | < 1e-05 s⁻¹
U30C G35A A39C G40C C68A | < 1e-05 s⁻¹ |  |  | < 1e-05 s⁻¹
G35A G43U U45C A53G G59A | < 1e-05 s⁻¹ |  |  | < 1e-05 s⁻¹
C34G G40U G41A C58U | < 1e-05 s⁻¹ |  |  | < 1e-05 s⁻¹
G38C U46G A64U | < 1e-05 s⁻¹ |  |  | < 1e-05 s⁻¹
A36G G38C A42U G62A C67U C68A U69G | < 1e-05 s⁻¹ |  |  | 
G38C G44U C50U | < 1e-05 s⁻¹ |  |  | < 1e-05 s⁻¹
G38A G41A C71A | < 1e-05 s⁻¹ | < 1e-05 s⁻¹ |  | 
G38C U54G | < 1e-05 s⁻¹ |  | < 1e-05 s⁻¹ | < 1e-05 s⁻¹
G32U U45G C70A | < 1e-05 s⁻¹ |  |  | < 1e-05 s⁻¹
G29U A39G G59U C67U | < 1e-05 s⁻¹ |  |  | < 1e-05 s⁻¹
C34A A42U | < 1e-05 s⁻¹ | < 1e-05 s⁻¹ | < 1e-05 s⁻¹ | < 1e-05 s⁻¹
A33U G41U A52U | < 1e-05 s⁻¹ | < 1e-05 s⁻¹ |  | < 1e-05 s⁻¹
A33C G59A | < 1e-05 s⁻¹ | < 1e-05 s⁻¹ |  | < 1e-05 s⁻¹
A36G A64U C71U | < 1e-05 s⁻¹ | < 1e-05 s⁻¹ |  | < 1e-05 s⁻¹
A36C G41A G66U | < 1e-05 s⁻¹ | < 1e-05 s⁻¹ |  | 
G29C U56G G66C | < 1e-05 s⁻¹ |  |  | < 1e-05 s⁻¹
U30G G63A | < 1e-05 s⁻¹ | < 1e-05 s⁻¹ | < 1e-05 s⁻¹ | < 1e-05 s⁻¹
A33U C68A C70G | < 1e-05 s⁻¹ | < 1e-05 s⁻¹ |  | 
G35U C61U | < 1e-05 s⁻¹ | < 1e-05 s⁻¹ |  | < 1e-05 s⁻¹
A33C G44U | < 1e-05 s⁻¹ | < 1e-05 s⁻¹ | < 1e-05 s⁻¹ | < 1e-05 s⁻¹

Variant | self-cleavage kobs at 160 uM GlcN6P (glucosamine-6-phosphate [1]) | self-cleavage kobs at 2500 uM GlcN6P (glucosamine-6-phosphate [2]) | self-cleavage kobs at 10000 uM GlcN6P (glucosamine-6-phosphate [3]) | self-cleavage kobs at 640 uM GlcN6P (glucosamine-6-phosphate [4])
G38A G44U C58A | < 1e-05 s⁻¹ | < 1e-05 s⁻¹ |  | < 1e-05 s⁻¹
A36U G51C | < 1e-05 s⁻¹ |  | < 1e-05 s⁻¹ | < 1e-05 s⁻¹
A33C G51U | < 1e-05 s⁻¹ |  | < 1e-05 s⁻¹ | < 1e-05 s⁻¹
G32A A42G G43C G51U G66C | < 1e-05 s⁻¹ |  |  | < 1e-05 s⁻¹
G29C G41U G63C C68A | < 1e-05 s⁻¹ | < 1e-05 s⁻¹ |  | < 1e-05 s⁻¹
A36U U46A | < 1e-05 s⁻¹ | < 1e-05 s⁻¹ | < 1e-05 s⁻¹ | < 1e-05 s⁻¹
A33G C67G C70A | 4.49e-05 ± 2.2e-05 s⁻¹ |  |  | 
G38C A39G | < 1e-05 s⁻¹ |  |  | < 1e-05 s⁻¹
G29U A48C G59A | < 1e-05 s⁻¹ | < 1e-05 s⁻¹ | < 1e-05 s⁻¹ | < 1e-05 s⁻¹
A36U A64G C68G | 7.51e-05 ± 3e-05 s⁻¹ |  |  | 
C34G A36C G38U A64C | < 1e-05 s⁻¹ |  |  | 
U30A U56G | 0.000202 ± 6.6e-05 s⁻¹ | 0.0019 ± 0.00059 s⁻¹ |  | 0.00118 ± 0.00024 s⁻¹
G38A G60U | < 1e-05 s⁻¹ | < 1e-05 s⁻¹ | < 1e-05 s⁻¹ | < 1e-05 s⁻¹
U31G U45G U49A U56A | < 1e-05 s⁻¹ |  | < 1e-05 s⁻¹ | 
U30G A39U A42U | 0.000126 ± 5.7e-05 s⁻¹ |  |  | 
G32C A39C U45A U56G | < 1e-05 s⁻¹ |  |  | 
G38A C61U C70G | < 1e-05 s⁻¹ |  |  | 
A33C U56C | < 1e-05 s⁻¹ | < 1e-05 s⁻¹ | < 1e-05 s⁻¹ | < 1e-05 s⁻¹
G38C G62U | < 1e-05 s⁻¹ | < 1e-05 s⁻¹ | < 1e-05 s⁻¹ | 
G38A G40A U49G G60U | < 1e-05 s⁻¹ | < 1e-05 s⁻¹ |  | < 1e-05 s⁻¹
A33C C34G G40U A48U C61A | < 1e-05 s⁻¹ | < 1e-05 s⁻¹ |  | < 1e-05 s⁻¹
G37C U47C A52U | < 1e-05 s⁻¹ |  |  | 
G32C C34A C67G C70A | < 1e-05 s⁻¹ |  |  | 
